PMC3591345, “A Novel Single-Strand Specific 3′–5′ Exonuclease Found in the Hyperthermophilic Archaeon, Pyrococcus furiosus”
One block for each molecule: values may come before it.

Assays:
[1] = biological target: PfuExo I (recombinant protein encoded by PF2046) (Pyrococcus furiosus) (UniProt Q8TZE9); experiment: SEC; analytical gel filtration, SMART system, Superdex 200 3.2/30; 20 µM PfuExo I; 50 mM Tris-HCl pH 8.0, 0.5 mM DTT, 0.1 mM EDTA, 10% glycerol, 0.15 M NaCl; mass estimated against marker proteins
PfuExo I = biological target: T1, PfuExo I (Pyrococcus furiosus, UniProt Q8TZE9 1-229); experiment: EMSA; no Mg2+, 0.1 mM EDTA; 1-1000 nM protein; 0.1% glutaraldehyde fixation; one shifted band; 20 mM triethanolamine (pH not stated), 50 mM NaCl, 0.1 mg/ml BSA, 0.1 mM EDTA, 2.5 nM DNA, 20 min at 37 C, then 0.1% glutaraldehyde; 4.5% native PAGE; details: protein: recombinant, chain copies: 3, label: 32P (5')
T1 sequence: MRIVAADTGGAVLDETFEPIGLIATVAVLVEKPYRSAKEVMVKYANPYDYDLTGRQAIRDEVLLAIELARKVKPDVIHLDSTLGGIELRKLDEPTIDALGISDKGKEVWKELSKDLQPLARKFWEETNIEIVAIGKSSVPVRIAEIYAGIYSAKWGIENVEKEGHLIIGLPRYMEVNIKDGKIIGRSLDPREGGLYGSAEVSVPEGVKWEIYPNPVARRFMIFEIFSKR

- stoichiometry N [1]: 3
Molecule: PfuExo I (recombinant protein encoded by PF2046) (from UniProt Q8TZE9 1-229) (enzyme)

B1: 5'-overhang DNA d49F/d27 (dsDNA)
DNA 1: AGCTACCATGCCTGCACGAATTAAGCAATTCGTAATCATGGTCATAGCT
DNA 2: AGCTATGACCATGATTACGAATTGCTT
- binding result (PfuExo I; 5' overhang 22 nt): binds

B2: 3'-overhang DNA d49F/d22 (dsDNA)
DNA 1: AGCTACCATGCCTGCACGAATTAAGCAATTCGTAATCATGGTCATAGCT
DNA 2: AATTCGTGCAGGCATGGTAGCT
- binding result (PfuExo I; 3' overhang 27 nt): binds
